Laboratory results as given in patent publication US6602687B1, “DNA encoding human ciliary neurotrophic factor and method for producing the protein encoded thereby” (Regeneron Pharmaceuticals, Inc., priority 1989, dated 2003).

How the values were obtained:
Format in all cases: cell-based
[1] = test system: E8 dorsal root ganglion neurons; experiment: Survival and neurite outgrowth of dorsal root ganglion neurons / DRG assay with E. coli protein extracts; settings: protein extracts of E. coli carrying human CNTF sequence in pCP93
Description: In addition, protein extracts were prepared from the same cells lysed by treatment with lysozyme followed by three cycles of freezing and thawing. […] No such activity could be detected in control extracts from the same host cells carrying the plasmid vector without the rCNTF gene.
Human CNTF sequence, engineered to lack intron sequences, has been inserted into the pCP93 vector and used to transform competent E. coli.

[2] = test system: E8 chick ciliary ganglion neurons; experiment: Survival of dissociated E8 chick ciliary ganglion neurons; settings: increasing amounts of pure protein
From the text: Ciliary neurotrophic factor activity may be evaluated using any CNTF-sensitive in vivo or in vitro system known in the art. For example, and not by way of limitation, in vitro systems have been developed which measure CNTF activity by quantitating 24-hour survival of embryonic (E8) chick ciliary ganglion (CG) neurons in monolayer cultures.
For example, ciliary ganglia may be collected from E8 chick embryos, dissociated (yielding approximately 20,000 cells per ganglion) and then diluted in HEBM medium containing 20 percent horse serum as described in Varon et al. (1979, Brain Res. 173:29-45). About fifty microliters of cell suspension containing neurons (2,000 cells) may then be seeded into microliter dishes and putative CNTF activity may be added. Culture plates may then be maintained at 37° C. in 5% CO2 for 24 hours, after which the cultures may be fixed by the addition of 200 μl 2 per cent glutaraldehyde in HEBM medium, and the number of surviving neurons may be determined visually by direct count under phase contrast microscopy.
Chick embryo ciliary ganglion cultures were created and maintained according to the method set forth in (Hughes et al., 1988, Nature 335 : 70-73).
(§1) Biological activity of recombinant CNTF was assayed on explants of chick embryo dorsal root ganglia (DRG) and dissociated cultures of ciliary ganglion (CG) neurons as described in Lindsay and Rohrer (1985, Devel. Biol 112:30-48). Briefly, DRG were dissected from chick embryos of 10 days incubation (E10) and 5-6 ganglia were explanted in 1 ml of a collagen gel matrix in 35 mm tissue culture dishes. After the gel had set, 1 ml of tissue culture growth medium F14 (Imperial Labs., U.K.) supplemented with 5% heat-inactivated horse serum (GIBCO) was added before adding human CNTF (1-20 l) to a final concentration of 100 pg to 100 ng/ml. CG were dissected from E8 chick embryos and incubated for 30 min in 0.25% trypsin (Worthington) in calcium- and magnesium-free phosphate buffered saline. The ganglia were then washed three times in F14 medium containing 5% horse serum before being dissociated to a single cell suspension by trituration through the bore of a Pasteur pipette. Enrichment for CG neurons was achieved by plating the cell suspension for 3.5 hr in a 60 mm dish, during which non-neuronal cells (fibroblasts and Schwann cells) attached firmly to the plastic while phase-bright neurons remained in suspension. The purified neurons were plated on polyornithine-laminin-coated 35 mm culture dishes at 8,000-10,000 neurons/dish. In explant cultures CNTF activity was determined by assessing the extent of fiber outgrowth in treated cultures compared to controls. Fiber outgrowth was scored on a scale of 0 to 5+, by comparing cultures to photographs of a dose-response of explanted DRG and NGF. In dissociated CG neuron cultures, CNTF activity was determined by counting at 48 hr the percentage of process-bearing neurons in control and CNTF-treated cultures. In all cases results were derived from triplicate cultures.

[3] = test system: E10 chick DRG; experiment: Fiber outgrowth from explants of E10 chick embryo dorsal root ganglia
Description: as §1, with “The ganglia were then washed three times in F14 medium containing 5% horse serum before being dissociated to a single cell suspension by trituration through the bore of a Pasteur pipette. Enrichment for CG neurons was achieved by plating the cell suspension for 3.5 hr in a 60 mm dish, during which non-neuronal cells (fibroblasts and Schwann cells) attached firmly to the plastic while phase-bright neurons remained in suspension. The purified neurons were plated on polyornithine-laminin-coated 35 mm culture dishes at 8,000-10,000 neurons/dish.” left out, “In all cases results were derived from triplicate cultures.” left out

B1: recombinant human CNTF: human ciliary neurotrophic factor expressed in E. coli (protein, UniProt P26441 1-200, looked up)
Ciliary neurotrophic factor: MAFTEHSPLTPHRRDLCSRSIWLARKIRSDLTALTESYVKHQGLNKNINLDSADGMPVASTDQWSELTEAERLQENLQAYRTFHVLLARLLEDQQVHFTPTEGDFHQAIHTLLLQVAAFAYQIEELMILLEYKIPRNEADGMPINVGDGGLFEKKLWGLKVLQELSQWTVRSIHDLRFISSHQTGIPARGSHYIANNKKM
CNTF activity in DRG assay [1]: CNTF activity
activity towards chick ciliary neurons compared with rat CNTF [2]: as active as rat CNTF
maximum fiber outgrowth at saturating levels, relative to saturating levels of NGF [3]: 50-75%
